Tests used:
[1] = ELISA stability characterization of tPA after storage in vial, solution or RRP; type: physicochemical
Experimental: RRPs were initially kept at 20° C., and subsequently subjected to a fixed wall temperature of 65° C. for 3 hours. Samples were kept in 6 different storage conditions for 24 hours prior to assay preparation: (1) Standard Cathflo Activase lyophilized in glass vial at 20° C.; (2) Cathflo Activase reconstituted in Millipore filtered water and kept in glass vial at 20° C.; (3) lyophilized Cathflo Activase loaded into RRPs and kept at 20° C.; (4) Cathflo Activase lyophilized in glass vial at 65° C.; (5) Cathflo Activase reconstituted in Millipore filtered water and stored in glass vial at 65° C., and (6) Cathflo Activase loaded into RRP and kept at 65° C. After 24 hours each sample in lyophilized form, including those stored in the RRP, was reconstituted in 2 mL Millipore water, and apportioned for subsequent use in ELISA, UV-Vis and HPLC assays.
Stability experiments were performed to characterize and compare the RRP with standard vials at various storage conditions. ELISA assays were used to test for stability of samples (Human tPA Platinum ELISA Kit, eBioscience, Inc.) that underwent two temperature conditions, T=20, 65° C. HPLC assays were not sufficient in assaying stability for tPA as the low pH buffer required denatured tPA regardless of conformation or partial denaturation already induced by the storage condition.
The samples to be tested were injected into each ELISA well and left to incubate. After a wash step, a second antibody, horseradish peroxidase (HRP)-conjugated anti-tPA, was injected into each sample well. The HRP-conjugated anti-tPA bound onto the opposing side of the tPA molecule already bound onto the plate-fixed antibody. After a second wash step, a color inducing substrate (TMB substrate) was then injected into the wells, which bound onto the HRP to induce a measureable gradient representing the amount of tPA bound. In order to prevent oversaturation of the antibodies, the samples were diluted to 10 ng/mL to fall within the assay sensitivity range of 2 pg/mL-10 ng/mL. Optical signal intensity from assay plates were measured with spectrophotometer at wavelength 450 nm (PowerWave HT Microplate Spectrophotomer, BioTek Instruments, Inc.). Each sample was normalized against a calibration curve derived from a 5-parameter logistic fit of tPA standards ran concurrently with the samples.

[2] = cited from earlier work

## Tissue Plasminogen Activator [tPA]
[1]; all samples (solid, liquid, and RRP) at 20° C., over 24 hours
  stability by ELISA: stability preservation
[1]; lyophilized in standard glass vial at 65° C., 24 hours
  average activity retained (ELISA): 81.6%
[1]; lyophilized, loaded into RRP, kept at 65° C., 24 hours
  total initial drug stability retained, average (ELISA): 86.3%
[1]; stored in reconstituted form within glass vials at 65° C., 24 hours
  activity expressed, in average of the standard activity average (ELISA): 39.3%
[2]
  stability time in solution (liquid form): up to 8 hours

Source: patent US20150297458A1, “RAPID RECONSTITUTION PACKAGES FOR MIXING AND DELIVERY OF DRUGS” (Massachusetts Institute of Technology, priority 2012, published 2015)
